Test: soluble on expression in E. coli; label from the status in PepcDB or PDB records

| Sequence | soluble on expression in E. coli |
| --- | --- |
| MNPFDMLSPGYQDIWLRLQSERLLLEKRISAKEGELKNLMQFVQNPPFLNFPQYMLPQGPLGAQNQ | not soluble |
| MSLEDYCTPGAFELERLFWKGSPQYTHVNEVWPKLYIGDEATALDRYRLQKAGFTHVLNAAHGRWNVDTGPDYYRDMDIQYHGVEADDLPTFDLSVFFYPAAAFIDRALSDDHSRKRDVRVRNLCRKAGPLGLLVAEGKGKILVHCVMGRSRSATLVLAYLMIHKDMTLVDAIQQVAKNRCVLPNRGFLKQLRELDKQLVQQRRRSEGHHHHHH | soluble |
| MSLNSLLLVSRIYQQTCIDDLAQLANEVKASFVRLVNEDANSHMIGTAMSTIGRAFTQRIIELVEAELGAAPLPYCFVAFGSMGRDEQLIVTDQDNALILDDRYDVQQHGAYFAQFAELVCRGLDRCGYPLCDGEIMASNPKWRMTRKEWETCFADWIDNPNPQALLNASIFFDLDGVYGRTKWAEQLSGFIVRRARRNQRFLACLARNALNRTPPLGFFKNFVMEKDGRHNNSINLKRRGTAPLADLIRVHALAAGSRAKNSFERLDDVIEAGLLPQGKGKDLRDALEFIAMVRIRHQAIDVEQEREADNSIEPEHLSDFERRNLKDAFQILSNGQNYLKYRYQANQHFKEGHHHHHH | soluble |
| MAKEKIIVENEQSVEEKLAALSKLQNTLSEIDKIKTLRGELPLEVQDLEDEIAGMQTRLENFTAGSKQLNQAVTTEKEKISTAKTLLEKYKKQLDEVRNNREFDNLSKEIEFQELEIQLSEKKIKEYNVEIQQRKTDIATLKEVLEEHSEVLAEKRGELDTIIAETKQEEEKLREKAKKLEAKIEPRLLTAFKRIRKAAHNGLAVVPVERDACGGCFNKIPPQKQLDVKLRKKIIVCEYCGRIMVDPEMGA | not soluble |
| GMWQFPLFETILIEQGQAKNISYHQQRYEKSLLKFYPKMKLQPFDLAKIIAKHTALFTHREGLIRCRIDYNHHDYVLQCFPYQQKVYRTFKPVFCDHIDYSLKFSDRTLLNNLLKQKEECDEIMIIRQGKVTDCSIGNLIFRQNNQWITPDKPLLEGTQRAKLLEQKKIIAREIFFEDLAQYEEIRLINAMNGL | soluble |
| MAHHHHHHMHRSLLRCALPGEPMLESYRSGVLRCLRCHLGAMRPDFPVGSAATEVAALASTATTPLTCSRRAFRQQGAAHPNTPDATEAAELEKDWQALKTYGMIGGFALLCVATLWYGSRQAKQRYFGAEGSARVSVETRGRPALGGPFVLVNTKGEPVSQAEFLGSWAFFYFGFTHCPEICPVELNRMSHVVDAVRAARPQERIAPLFVSCDPRRDSLEAIDEYLSVFHPDFIGLVGTPKQVNDACRSYRIYYSIPTDEDAAQEDYLIDHSIAIFLFDPQGRFVDFFGNRYDEREITEKVLHYMSEYAKDPTWTNW | not soluble |
| MKVTNLFKDKVDAISAHQSEFMNWMSPTLRDYWSDFLGKAQNSFLFSNVRDHNQPAVNEEVAPQPAPIVLQPEAQKLYDELSGKIGEVIHTGDWVHVSQERINQFGAVTEDMQWIHTDPERASVESPFKTTIAHGFLTLALLPKLTDSVDADKPLFPTAKLVVNLGLNQVRFPYPVKAGNNVRAVSTLTKVTPIKKGLEIEREIKVEIEGVRRPGAVVVSVIQLHFLEHHHHHH | soluble |
| MNQKLKVAIIGSGNIGTDLMIKVLRNAKYLEMGAMVGIDAASDGLARAQRMGVTTTYAGVEGLIKLPEFADIDFVFDATSASAHVQNEALLRQAKPGIRLIDLTPAAIGPYCVPVVNLEEHLGKLNVNMVTCGGQATIPMVAAVSRVAKVHYAEIVASISSKSAGPGTRANIDEFTETTSKAIEVIGGAAKGKAIIIMNPAEPPLIMRDTVYVLSAAADQAAVAASVAEMVQAVQAYVPGYRLKQQVQFDVIPESAPLNIPGLGRFSGLKTSVFLEVEGAAHYLPAYAGNLDIMTSAALATAERMAQSMLNA | soluble |
| MGGWSNFKFLFLSPGGELYGVLNDKIYKGTPPTHDNDNWLGRAKKIGDGGWNQFQFLFFDPNGYLYAVSKDKLYKAPPPQSDTDNWIARATEIGSGG | soluble |
| MLGAMFRAGTPMPPNLNSQGGGHYFIDRDGKAFRHILNFLRLGRLDLPRGYGETALLRAEADFYQIRPLLDALRELEASQGTPAPTAALLHADVDVSPRLVHFSARRGPHHYELSSVQVDTFRANLFCTDSECLGALRARFGVASGDRAEGSPHFHLEWAPRPVELPEVEYGRLGLQPLWTGGPGERREVVGTPSFLEEVLRVALEHGFRLDSVFPDPEDLLNSRSLRFVRH | soluble |
| MAHHHHHHMHRNIHGGTASATIANSALVSPPPHTTIPPLPAGMDPTYYALSLLRRRRLEECIAVSTQYLAVFNEKMRLTSSGTQKQADGVDEPLWFIQTRALITQDWFDELDVDNDGVDEVLLDGEQNISSTAHRPGTSLQRKDAPTGTTIPTGMAQRQGTARPISSRYGYVRPGTQSRNRPGTMSIRPITSRMMRIGTASLQAVPGGPHIDVRKLNLEKYGRTKPIVARILCDFLLHVEHRPRMVLELGAIALEQQPKDWWWMSRMGQAYYRLGLLREAERMFKAALTIQENVADVMRLARVFTKMDQPLKALDLLSEASKKNPMDHHLLLHMARLYDQLQDAEKSCQLYRRVLQLDSSNMESIACIAAYMFYEKKQPEIALRLYRRLLQMGVQTTELWNNLGLCCFYSSQYDIALSCLQRAVAISTEDETLADVWYNIGHIGIGTGDLGLAHRAFKVALGANPRHAEALNNLAVLNLNIGQVDQAMNDLAMAIEVSPEQHEPLYNFALLAFKAGNFEKSYKLLTQALEACPDHPESALLQATLRKSLATL | not soluble |
| MSLRISILQNNNKEVEAVKSEYESKLSKIQNDLDQQTIYANTAQNNYEQELQKHADVSKTISELREQLHTYKGQVKTLNLSRDQLENALKENEKSWSSQKESLLEQLDLSNSRIEDLSSQNKLLYDQIQIYTAADKEVNNSTNGPGLNNILITLRRERDILDTKVTVAERDAKMLRQKISLMDVELQDARTKLDNSRVEKENHSSIIQQHDDIMEKLNQLNLLRESNITLRNELENNNNKKKELQSELDKLKQNVAPIESELTALKYSMQEKEQELKLAKEEVHRWKKRSQDILEKHEQLSSSDYEKLESEIENLKEELENKERQGAEAEEKFNRLRRQAQERLKTSKLSQDSLTEQVNSLRDAKNVLENSLSEANARIEELQNAKVAQGNNQLEAIRKLQEDAEKASRELQAKLEESTTSYESTINGLNEEITTLKEEIEKQRQIQQQLQATSANEQNDLSNIVESMKKSFEEDKIKFIKEKTQEVNEKILEAQERLNQPSNINMEEIKKKWESEHEQEVSQKIREAEEALKKRIRLPTEEKINKIIERKKEELEKEFEEKVEERIKSMEQSGEIDVVLRKQLEAKVQEKQKELENEYNKKLQEELKDVPHSSHISDDERDKLRAEIESRLREEFNNELQAIKKKSFDEGKQQAMMKTTLLERKLAKMESQLSETKQSAESPPKSVNNVQNPLLGLPRKIEENSNSPFNPLLSGEKLLKLNSKSSSGGFNPFTSPSPNKHLQNDNDKRESLANKTDPPTHLEPSFNIPASRGLISSSSTLSTDTNDEELTSNNPAQKDSSNRNVQSEEDTEKKKEGEPVKRGEAIEEQTKSNKRPIDEVGELKNDEDDTTENINESKKIKTEDEEEKETDKVNDENSIEGHHHHHH | soluble |
| HHHHHHSVFEDDLPFLEFTGSIVYSYDASDCSFLSEDISMSLSDGDVVGFDMEWPPLYNRGKLGKVALIQLCVSESKCYLFHVSSMSVFPQGLKMLLENKAVKKAGVGIEGDQWKLLRDFDIKLKNFVELTDVANKKLKCTETWSLNSLVKHLLGKQLLKDKSIRCSNWSKFPLTEDQKLYAATDAYAGFIIYRNLEILDDTVQR | soluble |
| MDREAFVQTLTACRLCPRLVAWREEVVGRKRAFRGEPYWARPVPGFGDPEARILLFGLAPGAHGSNRTGRPFTGDASGAFLYPLLHEAGLSSKPESLPGDDLRLYGVYLTAAVRCAPPKNKPTPEELRACARWTEVELGLLPEVRVYVALGRIALEALLAHFGLRKSAHPFRHGAHYPLPGGRHLLASYHVSRQNTQTGRLTREMFLEVLMEAKRLAGL | soluble |
| MAHHHHHHMGTLEAQTQGPGSMNVLVIGSGGREHSMLHHIRKSTLLNKLFIAPGREGMSGLADIIDIDINSTIEVIQVCKKEKIELVVIGPETPLMNGLSDALTEEGILVFGPSKAAARLESSKGFTKELCMRYGIPTAKYGYFVDTNSAYKFIDKHKLPLVVKADGLAQGKGTVICHTHEEAYNAVDAMLVHHKFGEAGCAIIIEEFLEGKEISFFTLVDGSNPVILGVAQDYKTIGDNNKGPNTGGMGSYSKPNIITQEMEHIIIQKIIYPTIKAMFNMNIQFRGLLFAGIIIKKNEPKLLEYNVRFGDPETQSILPRLNSDFLKLLSLTAKGKLGNESVELSKKAALCVVVASRGYPGEYKKNSIINGIENIEKLPNVQLLHAGTRREGNNWVSDSGRVINVVAQGENLASAKHQAYAALDLLDWPDGIYRYDIGSCAL | soluble |
| MKLYVLIIAIILSIGTARTQNIDSLLMQREDTTQFIRSDSLVLQFLEYSNIPITDNNKVKLIKSGREKFEDLFEAIRGAKHHIHLEYFNFRNDSIANALFDLLGEKVKEGVKVRAMFDAFGNWSNNKPLKKRHLKAIREKGIEIVKFDPFKFPYINHAAHRDHRKIAVIDGKIGYTGGMNIADYYINGLPKIGTWRDMHIRIEGDAVNILQEIFLDIWNKTTKQNIVGEEYFPNHPERADSCNTVISIVDRTPKRNSRMLSHTYAMSIYAAQHDVRIVNPYFVPTSSIRKALKRALNRGTKVEIMISSKSDIPFTPDASLYAVQKLMKKGAMIYLYNGGFHHSKIMMVDDLFCTVGTANLNSRSLRYDYETNAFIFDKDITQQLNDVFEADMLHCTRLTPEMWKQKSAWKKFKCWFANLFTPFL | not soluble |
| MNNSSNADSQEGSTSAQKQKTANPSESRPFVLKKWNALAVWAWDVECDTCAICRVHLMEECLRCQSEPSAECYVVWGDCNHSFHHCCMTQWIRQNNRCPLCQKDWVVSRTSK | not soluble |
| MSQVTADALTAQVVAEYLYEHPDFFQHHPHLVERLALPTQTGAVSLAHVQLARQRQRIDSLEEEITALMSLAANNDRTFHEFMDLQEQILKCSSLQAVLHAIEAKARELNLRAYVRLLQRHDEKYGLASEDWQRFATNHFNGKSAYLGRLRQADRQRLLGDRPAPEMGSYVVLPLQRQAPLGILAFASEDGGHFQPSMDTLFLRHLALVLAHLIETLPWQSHDEERRTHPAS | not soluble |
| MILDSQLAQQIVDRTMAIIGYNINVMNQAGVIIGSGEKNRIGQVHDGAILALKHGDSVELTAESCVALKGVKPGINMVLRNQQQVVGIVGITGEPKDIRDFANLVKMSAEMIIEQAALVEQLQWDRRHREEFISAWIHNTLSAAELDAWAARLSIDLSKPRVAVVIAFRQPKSGQSLDQIRQVVELLEHPERDNLVAVVSMQEIVVLKPCRTPEHWTSEYESLRIDKLMARLKAYDITGYDIALGQLFINPNAIHLSYQSAKQVLRIGQVRQPEKQKHLYEELRLPVLLLPLNEGWQGEQWRRVMQELQTQDKSGQLVKTLKGLFAANGNLNLCAQQLFIHRNTLRYRLEKITEITGIETNSLLGLAELYIAYQLTSYD | soluble |

Source: the DeepSol protein solubility set
